Assay results published in paper doi:10.1101/2021.04.11.439388 (bioRxiv, 2021).

Assays:
mouse PD-L1-Fc [1] = target: T1, mouse PD-L1-Fc (mouse, UniProt Q9EP73); test: ELISA
mouse PD-L1-Fc [2] = target: T1, mouse PD-L1-Fc; test: ELISA; remark: listed apart in the source

T1 sequence (Q9EP73 19-239): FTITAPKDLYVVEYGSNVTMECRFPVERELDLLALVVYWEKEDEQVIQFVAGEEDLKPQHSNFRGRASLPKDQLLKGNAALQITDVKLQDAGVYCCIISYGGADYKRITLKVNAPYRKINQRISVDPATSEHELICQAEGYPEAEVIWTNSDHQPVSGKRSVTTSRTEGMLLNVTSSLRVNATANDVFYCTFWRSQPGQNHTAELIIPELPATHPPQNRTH

B1: PD-L1 nanobody Nb16 (VHH linked to an Fc fragment) (VHH)
VHH: QVQLQESGGGSVQAGGSLRLSCAASGYTDRNYWMGWFRQAPGKEREGVAALYTRTGSTYYADSVKGRFTISHDNAKNTLYLQMNSLKPEDTAVYYCAADSNAYGLAPLHHYWGQGTQVTVSS
Mouse PD-L1-Fc [1]
  EC50: 0.516 nM
Mouse PD-L1-Fc [2]
  IC50: 6.78 nM
